This is an account of results in patent US20190382455A1 (Sanofi, published 2019).

One assay deals with T1, MMP-9 proform (UniProt P14780 20-707).
T1 construct: Used as analyte in SPR; also called proform MMP-9; proform MMP9
Kind of assay: SPR (Biacore T200), biotinylated fusion molecule captured on CAP chip, MMP-9 proform as analyte. Background: SPR reads the build-up and loss of mass on a sensor chip optically.

The target of a further assay is T2, activated MMP-9 (UniProt P14780 107-707, limits assumed).
T2 construct: Used as analyte in SPR
T2 sequence (P14780 107-707 limits assumed): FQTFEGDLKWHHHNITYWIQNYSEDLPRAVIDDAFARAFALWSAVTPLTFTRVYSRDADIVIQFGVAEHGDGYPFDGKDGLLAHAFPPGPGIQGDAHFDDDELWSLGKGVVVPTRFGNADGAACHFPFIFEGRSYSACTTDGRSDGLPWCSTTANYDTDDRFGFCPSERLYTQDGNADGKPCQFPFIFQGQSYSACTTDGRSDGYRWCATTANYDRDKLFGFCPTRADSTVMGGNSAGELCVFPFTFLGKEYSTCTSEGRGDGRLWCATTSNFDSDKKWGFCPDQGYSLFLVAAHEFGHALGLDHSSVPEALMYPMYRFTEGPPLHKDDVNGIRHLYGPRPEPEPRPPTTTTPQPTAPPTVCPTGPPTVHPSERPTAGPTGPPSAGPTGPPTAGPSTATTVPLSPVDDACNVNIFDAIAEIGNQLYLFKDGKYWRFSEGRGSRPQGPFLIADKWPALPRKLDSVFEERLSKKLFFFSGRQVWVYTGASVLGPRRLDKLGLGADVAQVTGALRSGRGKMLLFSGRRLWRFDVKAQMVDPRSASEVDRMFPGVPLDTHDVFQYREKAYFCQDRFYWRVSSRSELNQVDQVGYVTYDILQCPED
Kind of assay: SPR (Biacore T200), biotinylated fusion molecule captured on CAP chip, activated MMP-9 as analyte.

T1 sequence (P14780 20-707 limits assumed): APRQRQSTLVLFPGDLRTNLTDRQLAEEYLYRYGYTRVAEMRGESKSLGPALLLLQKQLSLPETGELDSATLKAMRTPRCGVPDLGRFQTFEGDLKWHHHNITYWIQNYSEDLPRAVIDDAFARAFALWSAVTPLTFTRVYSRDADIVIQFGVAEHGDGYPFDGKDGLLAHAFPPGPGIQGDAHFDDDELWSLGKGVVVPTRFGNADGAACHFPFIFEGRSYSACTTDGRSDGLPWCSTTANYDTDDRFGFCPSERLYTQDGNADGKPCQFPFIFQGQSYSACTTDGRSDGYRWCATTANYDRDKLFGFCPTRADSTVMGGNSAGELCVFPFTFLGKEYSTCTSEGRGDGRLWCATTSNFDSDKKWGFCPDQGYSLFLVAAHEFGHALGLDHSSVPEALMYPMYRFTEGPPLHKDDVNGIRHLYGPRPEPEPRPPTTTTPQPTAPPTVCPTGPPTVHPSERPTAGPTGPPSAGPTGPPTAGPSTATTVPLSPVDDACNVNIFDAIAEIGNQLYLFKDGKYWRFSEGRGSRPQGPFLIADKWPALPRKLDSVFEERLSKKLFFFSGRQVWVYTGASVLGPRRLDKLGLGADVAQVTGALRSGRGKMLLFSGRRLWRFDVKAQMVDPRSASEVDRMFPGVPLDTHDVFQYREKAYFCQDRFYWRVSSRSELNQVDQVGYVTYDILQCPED

B1: fusion molecule of SEQ ID NO: 134 (designed binder)
chain: QDSTSDLIPAPPLSKVPLQQNFQDNQFQGKWYVVGVAGNTILREDKDPGKMNAAIYELKEDKSYDVTDVRFIRKKCHYYIDTFVPGSQPGEFTLGNIKSYPGTTSQLVRVVSTNYNQHAMVFFKIVRQNREIFWITLYGRTKELTSELKENFIRFSKSLGLPENHIVFPVPIDQCIDGGGGGSGGGGSQDSTSDLIPAPPLSKVPLQQNFQDNQFQGKWYVVGWAGNTALREDKDPPKMPAVIYELKEDKSYDVTDVQFPEKECIYSTITFVPGSQPGEFTLGGIKSSPGQTSHLVRVVSTNYNQHAMVFFKYVTQNREGFNIALYGRTKELTSELKENFIRFSKSLGLPENHIVFPVPIDQCIDGGGGGSGGGGSQDSTSDLIPAPPLSKVPLQQNFQDNQFQGKWYVVGEAGNLARREDKDPMKMMATIYELKEDKSYDVTEVRFRHKKCKYDIVTFVPGSQPGEFTLGLIKSDPGQTPELVRVVSTNYNQHAMVFFKKVVQNREYFWITLYGRTKELTSELKENFIRFSKSLGLPENHIVFPVPIDQCIDGGGGGSGGGGSQDSTSDLIPAPPLSKVPLQQNFQDNQFQGKWYVVGHAGNQWLREGRDPRKMWATIYELKEDKSYDVTDVDFAIKKCLYRITTFVPGSQPGEFTLGNIKSHPGGTSGLVRVVSTNYNQHAMVFFKFVIQNREAFFITLYGRTKELTSELKENFIRFSKSLGLPENHIVFPVPIDQCIDG
modifications: biotinylated with EZ-Link NHS-PEG4-Biotin for capture on the chip
notes: also called RA10680550
As to B1, the binding result with MMP-9 proform and with activated MMP-9 was “no binding (tested: ≥1 µM)” throughout.
